Laboratory results as given in the DeepSol protein solubility set.

Assay: soluble on expression in E. coli; label from the status in PepcDB or PDB records

Sequence | soluble on expression in E. coli
MTKYIFVTGGVVSSLGKGITAASLGRLLKNRGLNVTIQKFDPYINVDPGTMSPYQHGEVFVTDDGAETDLDLGHYERFIDINLNKYSNVTTGKIYSAVIRKERRGDYLGGTVQVIPHITNEIKERVFRAGRETNADVVITEIGGTVGDIESLPFLEAIRQIKSDVGRENVMYIHCTLVPYIKAAGEMKTKPTQHSVKELRSLGIQPNVIVVRTEMPMPQEMKEKIALFCDIDPKAVIEARDADTLYAVPLMLQEQKLDQIVCEHLRLNCREADMTEWKALVEKVRNLSKTTKIALVGKYVELPDAYISVVEALRHAGYAFDTDIDIQWINAEHVTRDNVADLLKDADGILVPGGFGDRGVEGKIEAIRYAREQRVPFLGICLGMQLASIEFARHVVGLSGAHSSEFDPNTPHPIIDLLPEQKDVEDLGGTLRLGLYPCKLQEGTLAYAAYGDEVIYERHRHRYEFNNQYRSIMEEHGFVFSGTSPDGRLVEVIELKDHPWFVAAQFHPEFTSRPTRPQPLFREFVRASLKE | not soluble
MTLDVPVNQGHVPPGSVACCLVGVTAVADGIAGHSLSNFGALPPEINSGRMYSGPGSGPLMAAAAAWDGLAAELSSAATGYGAAISELTNMRWWSGPASDSMVAAVLPFVGWLSTTATLAEQAAMQARAAAAAFEAAFAMTVPPPAIAANRTLLMTLVDTNWFGQNTPAIATTESQYAEMWAQDAAAMYGYASAAAPATVLTPFAPPPQTTNATGLVGHATAVAALRGQHSWAAAIPWSDIQKYWMMFLGALATAEGFIYDSGGLTLNALQFVGGMLWSTALAEAGAAEAAAGAGGAAGWSAWSQLGAGPVAASATLAAKIGPMSVPPGWSAPPATPQAQTVARSIPGIRSAAEAAETSVLLRGAPTPGRSRAAHMGRRYGRRLTVMADRPNVG | not soluble
MTLHEVPTILHRCGDCPIRHRAVCARCDSEELATLEQIKYYRSYQAGQTVIWSGDKMDFVASVVTGIATLTQTMEDGRRQMVGLLLPSDFVGRPGRQTVAYDVTATTDLLMCCFRRKPFEEMMQKTPHVGQRLLEMTLDELDAAREWMLLLGRKTAREKIASLLAIIARRDAALKLRESNGPMTFDLPLTREEMADYLGLTLETVSRQVSALKRDGVIALEGKRHVIVTDFARLLEEAGDDSDGGLPV | not soluble
MTLKELLVGFGTQVRSIWMIGLHAFAKRETRMYPEEPVYLPPRYRGRIVLTRDPDGEERCVACNLCAVACPVGCISLQKAETKDGRWYPEFFRINFSRCIFCGLCEEACPTTAIQLTPDFELGEYKRQDLVYEKEDLLISGPGKYPEYNFYRMAGMAIDGKDKGEAENEAKPIDVKSLLP | not soluble
MTLLGIKLKQTQQLNQRLQQSLRVLQMSGIELEREVENWLSDNPLLERKDTDEFSDAEFSHYTAPARQIGGDEGEDMLSNIAGEQDFKQYLHAQVCEHPLSDQEAACVHILIDFLDEQGYLTDSIEDILDHTPLEWMLDEAMLQHALTALKKFDPAGVAAADLNESLILQIERLGECAAKPAALHIVRNALDSIDGNRSQTLARIKKHLPQTDSGTLEAALDLIASLNPFPAAGFASSTPTPYSDEALANLLAFRGMEVSRRTIAKYRESFEIPAAHKRKTAE | not soluble
MTLPDSKKDQTARHVAILQESYRHYTGRYLFDPKLGASEAIVWLEQAPFALVSHGTQPDPIFNYGNQTALQLFGMTWDEFTRMPSRLSAEPVDRAERTRLLDHVSRDGYIDDYTGVRIAADGRRFLIRHATVWNLLDESGRFYGQAAMIPEWEVLQPVFTAD | not soluble
MTLPFKNGRGTMKINGVTIQMLPAASGDCIYLEFPDSDFRMLIDGGYAKTYQKYLKKFLLKLAAEGKRLNLIVVTHIDDDHISGIRALLKENGDSRNPKIIEIDEIWFNSLNQCITSRNAEQGMSFAVKIILKSMCSTDIDFECEYKKQNISYTNGKNLAELIQAGGYRWNASVVNNLVSKGQIVQFGDLKITILNPGIETLTKMGKKWLYHLKQINSNNIEITRDPLFDAAFEGFLLNNEKNIEFKQENISYSSEDLDWLDKYAEYKDIEMDSKITNCSSIAILIDYKDIKMLFPGDSPIQLFENELPKILDVIKLPHHGSAKNISLEFIKNTKVKYYLLSTDGKRYIDHPGKAVIANIIKNTGNNTELIKNYEIKFLKGLGKLDAED | not soluble
MTLPLNPAMAATFPPPVMEARRWIQGLSFPADRPLLNLSQAAPVEPPPAELRAALAEAALHDPQAHLYGPVLGLPALRAEIAAQWSAAYGGRIEPAQVAITQGCNQAFCAIMATLAGAGDEVILPTPWYFNHKMWLDMQGVMAVPLPTGPCLLPDAEEAAALVGPRTRAIVLVSPNNPGGVEYPAATLEAFRDLARARGLALIVDETYRDFDSRTGAPHALFADPDWDGVLVHLYSFSKAYRLTGHRVGAVVASAARLAQIEKFLDTVAICPSQLGQIGALWGIRNLAQWVAGERAEILARRTAMVGGFSALDGWTLLGCGAYFAYVEHPFDTPSDRLAPRLVQEAGVLLLPGTMFQPEGSEAGARQFRMAFANVDQAGIAELFSRLAQVTD | not soluble
MTLPPTSIADRIARAQPAFSRTQHRMAEYVLAHQFRVATMTIDEFAVAVGVSVATANRFARVLELPGYPQFRAELARGFESALEPVEKLRIELAHSASAAQVFAATLQEDIHNAQMTLQALDAGACERAVEAILNAERVFIIGFGTSGFLAGLLQRGLCMHLHAVESLAGPGGVSHAARQMSRMTSRDLVIALAFPRYLADTVTLANAAKLAGVPVLVLTDKPTSPLAPCATVALYAHMSRQLSSNAETAALGLIEALSAAVAHRAKNSIAAAAGVAQSVMPWLIHGEAGAGKR | not soluble
MTLSSKTTKKNTSQHKHPRYVDCDNCSMRAICQPIGADNQAIDLTSNYLTRRVEVSTEQSSSLPLNQSAGVALFEQASPLTAIFAVCSGTFKLCQKNDDGLDRIVGFRFPGELIGEDALFLEVYNYSAVALGDNSVCEVYVDSLSACSQLAPELQQNLIQLLTKQSYEQQRNAHAITGKKSADCLLAAFLLNICQRNAKHSGNETEIELTISRQDIASFLGMRRETLSRLLSKFQHEQLISLNGKQLSLLSLNHLKQLSNQ | not soluble
MTMGKRTQAPALEVRLLREGIIESKHIVQAVVCDERGRVLSVAGNSETATFVRSALKPFQALAVTTTGTLERYDLSDRDLAIITSSHKGTIEQVRQAFNILWRADLDPSVLQCPIPQGKRSPLEYNCSGKHAGMLAICQQRHWPLNNYMDRKHPVQQLVLAKVAELLRMPAAEFISAHDDCGVPTYLLQLGQISSLYALLAASNNLDMERIVRAMTHHPSMVAGEREFDTELMRLTPGELVSKSGAEGVQCIGRLGEGMGLTIKVMDGAKRAKYAVAIHLLQQMGWITPSVAESLAEKFMNPGKYTRLEVVGELSLLLEHHHHHH | not soluble
MTMIMRSIIDSLEALFSSFFSSIAPNLYEVLNFHCKKHTGMNFAEATLKNPKLTYEFLVKFFDSEMAVDVLDYLLSNFLKKYSIRAYGILKSFKSGDNKKLIEVAKLYSKVMQNGGGKDRD | not soluble
MTMLLDGGPQFPGLGVGSFGAPRHHEMPNREPAGMGLNPFGDSTHAAAAAAAAAAFKLSPAAAHDLSSGQSSAFTPQGSGYANALGHHHHHHHHHHHTSQVPSYGGAASAAFNSTREFLFRQRSSGLSEAASGGGQHGLFAGSASSLHAPAGIPEPPSYLLFPGLHEQGAGHPSPTGHVDNNQVHLGLRGELFGRADPYRPVASPRTDPYAAGAQFPNYSPMNMNMGVNVAAHHGPGAFFRYMRQPIKQELSCKWIDEAQLSRPKKSCDRTFSTMHELVTHVTMEHVGGPEQNNHVCYWEECPREGKSFKAKYKLVNHIRVHTGEKPFPCPFPGCGKIFARSENLKIHKRTHTGEKPFKCEFEGCDRRFANSSDRKKHMHVHTSDKPYICKVCDKSYTHPSSLRKHMKVHESQGSDSSPAASSGYESSTPPAIASANSKDTTKTPSAVQTSTSHNPGLPPNFNEWYV | soluble
MTMNANIEVRLKSPAHPGGFIKHEIIEPLALSVSNAAEVLGVSRAALSALLNERAHLPPEMALRIEKAFGVSMDTLMRMQNSYDIAQTRKRAEEIKVAPFSGKPIESNSVV | not soluble
MTMTMSYKAIEKIPRCSWNREEPGEQWNKIYSVETGLLGTYSFEWQSQVANKTMRKRNTNSICGRQHEPHCPVSITRAIAQPQLLTFPDSLASRGGHMTQSGQCHVSGSLLGRGHKSRGR | soluble
MTNEADKFVVDVIYALPTQQKVISVSVLPGTSAIDIVRQSNMVSFFPEIELETVKLGVFSNVVKHDQVILPGQRVEIYRPLIADPKDVRRRRADKAKDEGRANKVTGGRVS | soluble
MTNEFEILKPGKLLLASANLLDPNFKRTVLLMCEHNEEGSIGFILNKPMEFKVCEAISGFDEIDEPLHMGGPVQVDTVHVLHTRGDVIDGAVEVIPGLFWGGDKEQLSYLINTGVIKASEVRFFLGYAGWSAGQLEAEFEEGSWYTADASSEQVFTDEYERMWSRSVRSKGGEYCYVANSPELPGMNLEHHHHHH | not soluble
MTNLNYQQTHFVMSAPDIRHLPSDTGIEVAFAGRSNAGKSSALNTLTNQKSLARTSKTPGRTQLINLFEVADGKRLVDLPGYGYAEVPEEMKRKWQRALGEYLEKRQSLQGLVVLMDIRHPLKDLDQQMIEWAVDSNIAVLVLLTKADKLASGARKAQLNMVREAVLAFNGDVQVETFSSLKKQGVDKLRQKLDTWFSEMQPVEETQDGE | soluble
MTNNDTTLQLSSVLNRECTRSRVHCQSKKRALEIISELAAKQLSLPPQVVFEAILTREKMGSTGIGNGIAIPHGKLEEDTLRAVGVFVQLETPIAFDAIDNQPVDLLFALLVPADQTKTHLHTLSLVAKRLADKTICRRLRAAQSDEELYQIITDTEGTPDEA | soluble
MTPDHLLMLVALATFQKGIVPPTPAMELVMQVGACYHALTDAPRMGKLRLFLGKKPMAKLEQFLTEIENETDADF | not soluble
MTPFAEAVRQLRERKGVTQKEMAAAIGVSPAYLSALEHGKRGKPSFDLLQRIAGYFNIIWDEAEELFFLAGSSDPKVVIDTVGLPPQYTAFANRLARDIRKLPPSVVEELSAVLQKSRSCD | not soluble
MTPLERYQADLQRPDFFHDAAQANAVKHLQRLYDDLVAADHAKPGLFGKLLGRKSGGPVKGLYFWGGVGRGKTYLVDTFFESLPFEQKVRTHFHRFMKRVHEELKTLKGEKNPLTIIGKRFADEARVICFDEFFVSDITDAMILATLLEELFKNGVSLVATSNIVPDGLYKDGLQRARFLPAIALLKEHTEIVNVDSGVDYRLRALEQAELFHWPLSEQVEEEMARSFKALTPDCAKAQRDEALMIENREIRARLTCDDVAWFEFRELCDGPRSQNDYIELAKIFHAVLISNVEQMGVTKDDMARRFINLVDEFYDRSVKLIISAEVELKDLYSGGRLEFEFQRTLSRLLEMQSHEYLTRPHRPAAALEHHHHHH | not soluble
MTQATPFQLPPLALYVHIPWCVRKCPYCDFNSHAAGPELPEEAYVDALLADLEQDLRHVHGRRLGSIFFGGGTPSLFSAKALGRLLEGVERRVGFADGIEITLEANPGTFEQVKFADYRRLGINRLSIGVQSFQADKLQALGRIHDGAEAVRAADMARQAGFDNFNLDLMHGLPGQSLDDALADLRQALALAPTHLSWYQLTMEPNTVFWSQPPELPEDDILWDIQEAGQALLDEHGYRQYETSAYARDGLRARHNLNYWSFGDFLGIGAGAHAKLSAPDGRIVRTWKTRLPKDYLNPQKAFQAGERPLEAADLPFEFMMNVLRLVDGVPAALYPQRTGQPLAAIADACAAARDAGLLADDPQHLRPSERGQLFLNDLLQHFLP | not soluble
MTQIPPSRLHSPLDRLLVEAQRALDTVFGNPPAERPNPAGDTPDAALAPAQRQHAAGLMRINHVGEVCAQGLYFGQAAVARDDHTRQHLLTAAQEETDHLAWCADRLRELESRPSLFNPLWYAGSYALGAVAGLRGDDWSLGFVVETERQVEAHLDEHLETLPETDQRSRAILRVMKIDEARHADHAEQAGARILPPPIPSAMALASKLMKTIAYRFLEHHHHHH | not soluble
